From the supplement of paper PMC10567573

B1: FBF1 (parent)
chain: QLQCSPAELQAELLHSQARLAELE

Variants of: B1
Test: protein stability index of a GFP-peptide fusion (GPS, HEK-293T) (PSI 1-6); higher = more stable
Details: c terminus: a fixed tail appended
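Further: lentivirally expressed fusions sorted by FACS into six bins by GFP to DsRed ratio, PSI derived from sequencing read proportions per bin multiplied by bin number.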

| Variant | protein stability index |
| --- | --- |
| QLQCSHAELQAELLHSQARLAELE [P6H] | 2.19 |
| QLQCSYAELQAELLHSQARLAELE [P6Y] | 2.14 |
| QLQCSDAELQAELLHSQARLAELE [P6D] | 3.56 |
| QLQCSKAELQAELLHSQARLAELE [P6K] | 4 |
| QLQCSFAELQAELLHSQARLAELE [P6F] | 2.28 |
| QLQCSWAELQAELLHSQARLAELE [P6W] | 2.51 |
| QLQCSNAELQAELLHSQARLAELE [P6N] | 3.47 |
| QLQCSPAPLQAELLHSQARLAELE [E8P] | 3.86 |
| QLQCSPAALQAELLHSQARLAELE [E8A] | 1.66 |
| QLQCSPAKLQAELLHSQARLAELE [E8K] | 2.79 |
| QLQCSPAGLQAELLHSQARLAELE [E8G] | 2.76 |
| QLQCSPATLQAELLHSQARLAELE [E8T] | 2.41 |
| QLQCSPAHLQAELLHSQARLAELE [E8H] | 2.48 |
| QLQCSPARLQAELLHSQARLAELE [E8R] | 2.33 |
| QLQCSPALLQAELLHSQARLAELE [E8L] | 2.27 |
| QLQCSPAFLQAELLHSQARLAELE [E8F] | 2.13 |
| QLQCSPAWLQAELLHSQARLAELE [E8W] | 1.79 |
| QLQCSPAMLQAELLHSQARLAELE [E8M] | 2.06 |
| QLQCSPACLQAELLHSQARLAELE [E8C] | 1.72 |
| QLQCSPAYLQAELLHSQARLAELE [E8Y] | 2.25 |
| QLQCSPADLQAELLHSQARLAELE [E8D] | 2.55 |
| QLQCSPAQLQAELLHSQARLAELE [E8Q] | 2.67 |
| QLQCSPAILQAELLHSQARLAELE [E8I] | 2.28 |
| QLQCSPANLQAELLHSQARLAELE [E8N] | 2.84 |

| Variant | protein stability index |
| --- | --- |
| QLQCSPASLQAELLHSQARLAELE [E8S] | 2.17 |
| QLQCSPAVLQAELLHSQARLAELE [E8V] | 2.18 |
| QLQCSPAEEQAELLHSQARLAELE [L9E] | 5.3 |
| QLQCSPAECQAELLHSQARLAELE [L9C] | 3.85 |
| QLQCSPAEHQAELLHSQARLAELE [L9H] | 4.18 |
| QLQCSPAEIQAELLHSQARLAELE [L9I] | 4.14 |
| QLQCSPAEFQAELLHSQARLAELE [L9F] | 4.1 |
| QLQCSPAEKQAELLHSQARLAELE [L9K] | 4.57 |
| QLQCSPAEDQAELLHSQARLAELE [L9D] | 5.05 |
| QLQCSPAEMQAELLHSQARLAELE [L9M] | 4.3 |
| QLQCSPAENQAELLHSQARLAELE [L9N] | 4.92 |
| QLQCSPAEGQAELLHSQARLAELE [L9G] | 4.96 |
| QLQCSPAEAQAELLHSQARLAELE [L9A] | 4.79 |
| QLQCLPAELQAELLHSQARLAELE [S5L] | 3.13 |
| QLQCNPAELQAELLHSQARLAELE [S5N] | 2.94 |
| QLQCAPAELQAELLHSQARLAELE [S5A] | 3.48 |
| QLQCIPAELQAELLHSQARLAELE [S5I] | 3.25 |
| QLQCPPAELQAELLHSQARLAELE [S5P] | 3.67 |
| QLQCCPAELQAELLHSQARLAELE [S5C] | 3.03 |
| QLQCVPAELQAELLHSQARLAELE [S5V] | 3.03 |
| QLQCWPAELQAELLHSQARLAELE [S5W] | 2.64 |
| QLQCMPAELQAELLHSQARLAELE [S5M] | 3.23 |
| QLQCRPAELQAELLHSQARLAELE [S5R] | 2.66 |
| QLQCFPAELQAELLHSQARLAELE [S5F] | 2.87 |

| Variant | protein stability index |
| --- | --- |
| QLQCHPAELQAELLHSQARLAELE [S5H] | 3.01 |
| QLQCYPAELQAELLHSQARLAELE [S5Y] | 3.01 |
| QLQCGPAELQAELLHSQARLAELE [S5G] | 2.79 |
| QLQCTPAELQAELLHSQARLAELE [S5T] | 3.85 |
| QLQCDPAELQAELLHSQARLAELE [S5D] | 2.74 |
| QLQCEPAELQAELLHSQARLAELE [S5E] | 3.25 |
| QLQCQPAELQAELLHSQARLAELE [S5Q] | 3.69 |
| QLQCKPAELQAELLHSQARLAELE [S5K] | 3.23 |
| QLQTSPAELQAELLHSQARLAELE [C4T] | 3.49 |
| QLQLSPAELQAELLHSQARLAELE [C4L] | 3.92 |
| QLQFSPAELQAELLHSQARLAELE [C4F] | 3.14 |
| QLQYSPAELQAELLHSQARLAELE [C4Y] | 3.77 |
| QLQWSPAELQAELLHSQARLAELE [C4W] | 2.82 |
| QLQPSPAELQAELLHSQARLAELE [C4P] | 3.65 |
| QLQQSPAELQAELLHSQARLAELE [C4Q] | 3.92 |
| QLQMSPAELQAELLHSQARLAELE [C4M] | 3.82 |
| QLQHSPAELQAELLHSQARLAELE [C4H] | 3.15 |
| QLQGSPAELQAELLHSQARLAELE [C4G] | 3.32 |
| QLQKSPAELQAELLHSQARLAELE [C4K] | 4.23 |
| QLQDSPAELQAELLHSQARLAELE [C4D] | 4.22 |
| QLQASPAELQAELLHSQARLAELE [C4A] | 3.99 |
| QLQRSPAELQAELLHSQARLAELE [C4R] | 3.94 |
| QLQISPAELQAELLHSQARLAELE [C4I] | 2.93 |
| QLQSSPAELQAELLHSQARLAELE [C4S] | 3.82 |

| Variant | protein stability index |
| --- | --- |
| QLQESPAELQAELLHSQARLAELE [C4E] | 4.39 |
| QLQNSPAELQAELLHSQARLAELE [C4N] | 3.26 |
| QLQVSPAELQAELLHSQARLAELE [C4V] | 2.96 |
| QLRCSPAELQAELLHSQARLAELE [Q3R] | 3.21 |
| QLWCSPAELQAELLHSQARLAELE [Q3W] | 2.62 |
| QLDCSPAELQAELLHSQARLAELE [Q3D] | 3.1 |
| QLLCSPAELQAELLHSQARLAELE [Q3L] | 3.35 |
| QLHCSPAELQAELLHSQARLAELE [Q3H] | 2.6 |
| QLFCSPAELQAELLHSQARLAELE [Q3F] | 2.11 |
| QLNCSPAELQAELLHSQARLAELE [Q3N] | 2.81 |
| QLTCSPAELQAELLHSQARLAELE [Q3T] | 3.48 |
| QLICSPAELQAELLHSQARLAELE [Q3I] | 2.69 |
| QLCCSPAELQAELLHSQARLAELE [Q3C] | 2.53 |
| QLMCSPAELQAELLHSQARLAELE [Q3M] | 2.59 |
| QLGCSPAELQAELLHSQARLAELE [Q3G] | 3.25 |
| QLVCSPAELQAELLHSQARLAELE [Q3V] | 3.1 |
| QLKCSPAELQAELLHSQARLAELE [Q3K] | 2.19 |
| QLYCSPAELQAELLHSQARLAELE [Q3Y] | 2.12 |
| QLECSPAELQAELLHSQARLAELE [Q3E] | 3.54 |
| QLACSPAELQAELLHSQARLAELE [Q3A] | 3.13 |
| QLSCSPAELQAELLHSQARLAELE [Q3S] | 3.53 |
| QLPCSPAELQAELLHSQARLAELE [Q3P] | 3.01 |
